Source: patent US10562947B2, “Compositions and methods for preventing or treating diseases, conditions or processes characterized by aberrant fibroblast proliferation and extracellular matrix deposition” (MOERAE MATRIX, INC., priority 2011, dated 2020)
Where a SMILES comes first, the peptide text is derived from it.

Columns and labels:
[1] = tested on: bleomycin-induced lung fibrosis in C57BL/6 mice; test: Bleomycin mouse model of pulmonary fibrosis, prevention model (dosing day 7 to 21); format: in vivo; conditions: for collagen levels in the lung (Masson's blue trichrome), dose response: 25, 50 or 75 μg/kg daily IP, day 7 to 21
Method: A mouse model of pulmonary fibrosis was generated by administering 0.025 U of bleomycin/PBS intratracheally to C57BL/6 mice. […] At 21 day post bleomycin delivery (for prevention model) or 28 post bleomycin delivery (for treatment model), groups of mice were sacrificed with a sodium pentobarbital injection (120 mg/kg) and the chest cavity was opened. The right mainstem bronchus was ligated and the right lung was removed. The trachea was cannulated and the left lung was perfused with 4% formaldehyde at 21 cm H2O pressure. The tissue blocks then were embedded in paraffin, and […] sections were prepared for staining. Sections from each animal were stained with hematoxylin and eosin (H&E) to visualize cells or with Masson's Trichrome staining to highlight collagen deposition. […] Stained sections were mounted onto a labeled glass slide with organic mounting medium.
Briefly, fibrotic loci in the lungs of the mice were induced by delivering intratracheally about 0.025 U of bleomycin (dissolved in PBS) to C57BL/6 mice. […] Briefly, mice were sacrificed with a sodium pentobarbital injection (120 mg/kg) and the chest cavity was opened. The right mainstem bronchus was ligated and the right lung was removed. The trachea was cannulated and the left lung was perfused with 4% formaldehyde at 21 cm H2O pressure. The tissue blocks then were embedded in paraffin, and […] sections were prepared, and stained with hematoxylin and eosin (H&E; for pathological examination) or Masson's Trichrome (for collagen staining)
Next, total collagen levels in the lungs of the bleomycin-injured mice (FIG. 12) were analyzed quantitatively by computing a constant conversion factor (7.5) for collagen from hydroxyproline concentrations (Neuman R. and Logan M, J Biol Chem., 186(2):549-56, 1950, incorporated by reference).
Next, the effect of increasing doses of MK2 peptide inhibitors on collagen deposition was examined in vivo using the bleomycin mouse model of idiopathic pulmonary fibrosis (prevention model). Briefly, C57-BL/6 mice were subjected to bleomycin injury at day 0.

[2] = tested on: human fetal lung fibroblasts (IMR-90); test: TGF-β-mediated fibronectin expression in IMR-90 cells; format: cell-based; conditions: 1 h pre-treatment, TGF-β1 2 ng/ml 72 h
Method: Fibronection was measured as secreted fragments in the conditioned media. Equal amounts (14 μg) of total proteins from the conditioned media were loaded in each lane.

[3] = tested on: human fetal lung fibroblasts (IMR-90); test: TGF-β1-induced myofibroblast activation in IMR-90 cells, α-SMA immunoblot; format: cell-based; conditions: 1 h pre-treatment, TGF-β1 2 ng/ml 48 h
Excerpt: Cell lysates were immunoblotted against antibodies for α-SMA (a marker for myofibroblast activation) and GAPDH (loading control).

JNK1α1(h) = target: T1, JNK1α1(h) (Homo sapiens, UniProt P45983); test: Kinase Profiling Assay; format: biochemical; conditions: 100 μM peptide
T1 construct: purchased Millipore
T1 sequence (P45983 1-384 isoform P45983-2): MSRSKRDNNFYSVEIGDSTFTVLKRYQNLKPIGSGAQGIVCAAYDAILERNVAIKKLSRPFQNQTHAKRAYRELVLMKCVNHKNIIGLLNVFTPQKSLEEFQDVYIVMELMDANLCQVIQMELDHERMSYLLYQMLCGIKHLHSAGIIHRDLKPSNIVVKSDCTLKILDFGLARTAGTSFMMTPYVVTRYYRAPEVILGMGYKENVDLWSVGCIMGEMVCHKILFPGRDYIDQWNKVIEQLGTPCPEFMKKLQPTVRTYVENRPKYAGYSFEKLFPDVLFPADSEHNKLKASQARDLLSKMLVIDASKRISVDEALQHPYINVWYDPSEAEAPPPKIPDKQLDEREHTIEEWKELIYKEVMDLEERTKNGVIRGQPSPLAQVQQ
In short: (§1)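 Specificity of the MK2-directed peptides is examined by measuring activity of 266 human kinases, every determination performed in duplicate.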

Abl(Y253F)(h) = Abl(Y253F)(h) (Homo sapiens, UniProt P00519, Y253F); test: Kinase Profiling Assay; format: biochemical; conditions: 100 μM peptide
In short: as §1

Aurora-B(h) = Aurora-B(h) (Homo sapiens, UniProt Q96GD4); test: Kinase Profiling Assay; format: biochemical; conditions: 100 μM peptide
Chain of Aurora-B(h) (Q96GD4 whole entry): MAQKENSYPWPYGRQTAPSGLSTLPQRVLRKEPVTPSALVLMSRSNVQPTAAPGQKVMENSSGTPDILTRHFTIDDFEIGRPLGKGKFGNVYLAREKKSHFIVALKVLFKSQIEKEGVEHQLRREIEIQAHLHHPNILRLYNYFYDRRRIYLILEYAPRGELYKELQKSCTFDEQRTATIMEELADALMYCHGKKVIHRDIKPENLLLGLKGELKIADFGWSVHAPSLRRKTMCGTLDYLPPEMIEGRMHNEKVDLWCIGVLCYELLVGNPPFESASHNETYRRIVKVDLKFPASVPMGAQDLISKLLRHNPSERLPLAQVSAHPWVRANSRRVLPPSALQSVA
In short: as §1

eEF-2K(h) = eEF-2K(h) (Homo sapiens, UniProt O00418); test: Kinase Profiling Assay; format: biochemical; conditions: 100 μM peptide
In short: as §1

ZIPK(h) = ZIPK(h) (Homo sapiens, UniProt O43293); test: Kinase Profiling Assay; format: biochemical; conditions: 100 μM peptide
Chain of ZIPK(h) (O43293 whole entry): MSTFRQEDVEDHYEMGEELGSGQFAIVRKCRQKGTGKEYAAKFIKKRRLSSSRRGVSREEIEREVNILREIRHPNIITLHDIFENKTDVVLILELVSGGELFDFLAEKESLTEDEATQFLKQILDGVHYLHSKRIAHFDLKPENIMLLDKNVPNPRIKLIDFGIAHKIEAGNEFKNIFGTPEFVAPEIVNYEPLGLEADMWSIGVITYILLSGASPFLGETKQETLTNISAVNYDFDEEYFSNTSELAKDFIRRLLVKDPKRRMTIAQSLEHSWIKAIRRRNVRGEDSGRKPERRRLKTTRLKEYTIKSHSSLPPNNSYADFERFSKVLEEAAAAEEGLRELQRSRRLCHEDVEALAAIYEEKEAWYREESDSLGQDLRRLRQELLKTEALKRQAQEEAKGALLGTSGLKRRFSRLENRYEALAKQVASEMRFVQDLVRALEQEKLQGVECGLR
In short: as §1

Lck(h) = Lck(h) (Homo sapiens, UniProt P06239); test: Kinase Profiling Assay; format: biochemical; conditions: 100 μM peptide
Chain of Lck(h) (P06239 whole entry): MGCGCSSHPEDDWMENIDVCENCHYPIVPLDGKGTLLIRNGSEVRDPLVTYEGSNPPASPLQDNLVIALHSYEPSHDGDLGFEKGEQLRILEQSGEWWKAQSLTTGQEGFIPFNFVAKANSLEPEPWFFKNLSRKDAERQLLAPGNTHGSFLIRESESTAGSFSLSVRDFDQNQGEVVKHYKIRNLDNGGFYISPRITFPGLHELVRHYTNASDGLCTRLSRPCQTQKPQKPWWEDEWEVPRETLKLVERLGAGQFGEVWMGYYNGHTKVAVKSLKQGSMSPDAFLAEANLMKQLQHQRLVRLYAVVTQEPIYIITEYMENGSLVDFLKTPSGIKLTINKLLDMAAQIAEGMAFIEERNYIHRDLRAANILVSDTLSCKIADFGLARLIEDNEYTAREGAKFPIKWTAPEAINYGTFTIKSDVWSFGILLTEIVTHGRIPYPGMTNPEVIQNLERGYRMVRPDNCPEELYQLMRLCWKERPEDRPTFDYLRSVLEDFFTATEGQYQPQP
In short: as §1

LKB1(h) = target: T2, LKB1(h) (Homo sapiens, UniProt Q15831); test: Kinase Profiling Assay; format: biochemical; conditions: 100 μM peptide
T2 sequence (Q15831 1-433): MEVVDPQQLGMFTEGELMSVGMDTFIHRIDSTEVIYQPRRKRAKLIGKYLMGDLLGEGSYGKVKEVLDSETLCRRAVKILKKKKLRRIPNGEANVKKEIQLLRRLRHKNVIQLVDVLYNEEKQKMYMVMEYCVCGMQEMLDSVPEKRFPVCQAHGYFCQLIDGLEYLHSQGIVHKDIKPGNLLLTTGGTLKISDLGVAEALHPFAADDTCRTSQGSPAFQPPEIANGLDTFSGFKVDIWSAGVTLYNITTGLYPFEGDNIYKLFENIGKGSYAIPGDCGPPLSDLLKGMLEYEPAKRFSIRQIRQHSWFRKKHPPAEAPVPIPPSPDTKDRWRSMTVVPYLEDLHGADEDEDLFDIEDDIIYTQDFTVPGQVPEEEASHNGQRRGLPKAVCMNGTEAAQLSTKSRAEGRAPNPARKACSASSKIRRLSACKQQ
T2 sequence (Q7RTN6 1-431 partner): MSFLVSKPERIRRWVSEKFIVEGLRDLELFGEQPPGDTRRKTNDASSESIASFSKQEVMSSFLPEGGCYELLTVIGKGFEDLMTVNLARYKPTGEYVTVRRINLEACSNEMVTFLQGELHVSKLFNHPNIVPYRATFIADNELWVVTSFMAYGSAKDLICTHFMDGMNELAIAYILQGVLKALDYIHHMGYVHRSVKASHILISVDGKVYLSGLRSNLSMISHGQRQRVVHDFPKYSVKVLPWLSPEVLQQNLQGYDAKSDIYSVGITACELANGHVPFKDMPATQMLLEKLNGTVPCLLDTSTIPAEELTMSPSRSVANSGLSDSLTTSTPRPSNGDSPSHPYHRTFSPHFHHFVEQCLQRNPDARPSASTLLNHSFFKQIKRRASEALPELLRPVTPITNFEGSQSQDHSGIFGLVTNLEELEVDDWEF
T2 sequence (Q9Y376 1-341 partner): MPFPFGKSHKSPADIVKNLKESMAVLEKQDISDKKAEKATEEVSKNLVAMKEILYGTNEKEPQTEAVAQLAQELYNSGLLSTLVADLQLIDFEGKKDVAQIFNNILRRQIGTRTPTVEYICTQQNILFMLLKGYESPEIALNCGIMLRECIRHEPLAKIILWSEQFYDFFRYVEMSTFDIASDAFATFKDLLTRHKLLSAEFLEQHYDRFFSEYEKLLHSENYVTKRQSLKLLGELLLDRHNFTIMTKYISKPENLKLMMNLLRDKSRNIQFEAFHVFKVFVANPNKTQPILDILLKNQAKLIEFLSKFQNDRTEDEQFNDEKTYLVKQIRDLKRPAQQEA
In short: as §1

PKCη(h) = PKCη(h) (Homo sapiens, UniProt P24723); test: Kinase Profiling Assay; format: biochemical; conditions: 100 μM peptide
Chain of PKCη(h) (P24723 whole entry): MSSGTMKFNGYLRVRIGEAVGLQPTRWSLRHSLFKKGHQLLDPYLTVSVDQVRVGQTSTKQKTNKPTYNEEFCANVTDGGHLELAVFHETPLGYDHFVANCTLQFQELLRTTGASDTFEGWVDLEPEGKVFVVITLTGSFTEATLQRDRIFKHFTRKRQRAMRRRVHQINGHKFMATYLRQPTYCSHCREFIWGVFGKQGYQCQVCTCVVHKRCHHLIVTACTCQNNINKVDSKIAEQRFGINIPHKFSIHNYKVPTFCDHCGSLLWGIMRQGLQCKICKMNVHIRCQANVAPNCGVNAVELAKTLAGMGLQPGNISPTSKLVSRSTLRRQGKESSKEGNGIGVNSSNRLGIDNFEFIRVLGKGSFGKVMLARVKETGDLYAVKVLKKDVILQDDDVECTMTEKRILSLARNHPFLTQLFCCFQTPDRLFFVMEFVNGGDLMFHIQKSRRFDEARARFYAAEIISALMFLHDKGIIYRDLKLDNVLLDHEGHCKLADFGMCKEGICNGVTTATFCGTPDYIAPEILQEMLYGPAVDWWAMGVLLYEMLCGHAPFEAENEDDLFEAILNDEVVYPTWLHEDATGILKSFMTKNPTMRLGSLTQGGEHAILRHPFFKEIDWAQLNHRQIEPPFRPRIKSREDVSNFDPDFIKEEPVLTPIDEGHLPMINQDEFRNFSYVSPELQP
In short: as §1

Tie2(R849W)(h) = Tie2(R849W)(h) (Homo sapiens, UniProt Q02763, R849W); test: Kinase Profiling Assay; format: biochemical; conditions: 100 μM peptide
Chain of Tie2(R849W)(h) (Q02763 23-1124 R849W): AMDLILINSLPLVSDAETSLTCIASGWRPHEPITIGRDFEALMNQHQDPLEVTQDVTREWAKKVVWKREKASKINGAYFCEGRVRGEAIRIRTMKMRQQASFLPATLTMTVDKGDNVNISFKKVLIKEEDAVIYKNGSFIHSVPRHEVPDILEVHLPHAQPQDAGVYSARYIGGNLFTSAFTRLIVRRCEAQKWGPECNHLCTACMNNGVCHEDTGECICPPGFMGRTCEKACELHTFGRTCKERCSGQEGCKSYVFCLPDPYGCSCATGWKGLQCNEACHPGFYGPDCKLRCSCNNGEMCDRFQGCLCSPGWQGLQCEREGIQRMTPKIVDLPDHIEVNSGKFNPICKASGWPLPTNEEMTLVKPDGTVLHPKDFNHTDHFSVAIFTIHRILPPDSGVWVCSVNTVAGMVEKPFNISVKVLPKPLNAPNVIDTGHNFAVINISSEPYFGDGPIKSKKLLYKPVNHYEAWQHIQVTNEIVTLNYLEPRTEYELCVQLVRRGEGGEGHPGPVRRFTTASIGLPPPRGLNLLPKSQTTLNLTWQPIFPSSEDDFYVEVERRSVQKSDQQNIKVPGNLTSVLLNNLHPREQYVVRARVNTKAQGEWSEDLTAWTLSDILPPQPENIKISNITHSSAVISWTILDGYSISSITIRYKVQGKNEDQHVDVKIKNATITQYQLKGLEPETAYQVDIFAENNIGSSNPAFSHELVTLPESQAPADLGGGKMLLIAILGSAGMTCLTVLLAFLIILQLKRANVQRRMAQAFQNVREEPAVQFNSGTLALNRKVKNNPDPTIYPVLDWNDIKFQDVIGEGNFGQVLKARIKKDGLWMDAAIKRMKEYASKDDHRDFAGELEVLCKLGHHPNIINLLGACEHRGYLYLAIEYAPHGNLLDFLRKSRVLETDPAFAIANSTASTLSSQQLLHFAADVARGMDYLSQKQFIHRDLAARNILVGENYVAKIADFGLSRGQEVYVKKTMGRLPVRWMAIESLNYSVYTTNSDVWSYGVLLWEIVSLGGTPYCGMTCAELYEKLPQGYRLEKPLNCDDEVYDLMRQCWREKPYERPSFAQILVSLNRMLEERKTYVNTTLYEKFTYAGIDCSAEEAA
In short: as §1

[4] = nebulization or intraperitoneal, daily day 7 to 21, lung at day 21

Row | Compound | collagen levels in the lung (Masson's blue trichrome), dose response [1] | collagen accumulation (Masson's Trichrome staining) [1, 4] | fibrotic loci formation (H&E staining) [1, 4] | total collagen levels in the lungs (from hydroxyproline) ([1]; nebulized or systemic (IP), post-inflammatory/pre-fibrotic stage, vs bleomycin control) | protein level of fibronectin (conditioned media) [2] | protein level of α-smooth muscle actin (α-SMA) [3] | JNK1α1(h) % activity (JNK1α1(h)) | Abl(Y253F)(h) % activity (Abl(Y253F)(h)) | Aurora-B(h) % activity (Aurora-B(h)) | eEF-2K(h) % activity (eEF-2K(h)) | ZIPK(h) % activity (ZIPK(h)) | Lck(h) % activity (Lck(h)) | LKB1(h) % activity (LKB1(h)) | PKCη(h) % activity (PKCη(h)) | Tie2(R849W)(h) % activity (Tie2(R849W)(h))
1 | CC(C)C[C@H](NC(=O)[C@H](C)NC(=O)[C@H](CCCCN)NC(=O)[C@H](C)NC(=O)[C@H](CCCNC(=N)N)NC(=O)[C@H](C)NC(=O)[C@H](CCC(N)=O)NC(=O)[C@H](CCCNC(=N)N)NC(=O)[C@H](C)NC(=O)[C@H](C)NC(=O)[C@H](C)NC(=O)[C@H](CCCNC(=N)N)NC(=O)[C@H](C)NC(=O)[C@@H](N)Cc1ccc(O)cc1)C(=O)N[C@@H](C)C(=O)N[C@@H](CCCNC(=N)N)C(=O)N[C@@H](CCC(N)=O)C(=O)N[C@@H](CC(C)C)C(=O)NCC(=O)N[C@H](C(=O)N[C@@H](C)C(=O)N[C@@H](C)C(=O)O)C(C)C [MMI-0100] (H-YARAAARQARAKALARQLGVAA-OH; N-terminus and C-terminus assumed) | decrease in collagen levels | reduced collagen accumulation | significantly reduced development of fibrotic loci formation | significantly decreased collagen deposition | decreases in the levels | decreases in the levels | – | – | – | – | – | – | – | – | –
2 | FAKLAARLYRKALARQLGVAA [MMI-0300] | – | – | – | – | – | – | 97% | 86% | 128% | 91% | 28% | −2% | 101% | – | –
3 | HRRIKAWLKKIKALARQLGVAA (Mammalian) [MMI-0500] | – | – | – | – | – | – | – | 29% | 5% | 43% | 1% | 359% | 51% | 45% | –
4 | KAFAKLAARLYRKALARQLGVAA [MMI-0400] | – | – | – | – | – | – | 98% | 78% | 150% | 43% | 13% | – | 89% | 98% | 108%
5 | YARAAARQARAKALNRQLGVA (Mammalian) [MMI-0200] | did not reduce, but rather increased the collagen deposition | – | – | – | no changes in the protein level | no changes in the protein level | – | – | 166% | – | 67% | – | 99% | 101% | 89%
